Reference: article PMC2816023

Biological target: recombinant extracellular region of human calsyntenin-1 (residues 29-859) (human) (UniProt O94985)
Test: SPR

UniProt O94985, sequence (O94985 29-859): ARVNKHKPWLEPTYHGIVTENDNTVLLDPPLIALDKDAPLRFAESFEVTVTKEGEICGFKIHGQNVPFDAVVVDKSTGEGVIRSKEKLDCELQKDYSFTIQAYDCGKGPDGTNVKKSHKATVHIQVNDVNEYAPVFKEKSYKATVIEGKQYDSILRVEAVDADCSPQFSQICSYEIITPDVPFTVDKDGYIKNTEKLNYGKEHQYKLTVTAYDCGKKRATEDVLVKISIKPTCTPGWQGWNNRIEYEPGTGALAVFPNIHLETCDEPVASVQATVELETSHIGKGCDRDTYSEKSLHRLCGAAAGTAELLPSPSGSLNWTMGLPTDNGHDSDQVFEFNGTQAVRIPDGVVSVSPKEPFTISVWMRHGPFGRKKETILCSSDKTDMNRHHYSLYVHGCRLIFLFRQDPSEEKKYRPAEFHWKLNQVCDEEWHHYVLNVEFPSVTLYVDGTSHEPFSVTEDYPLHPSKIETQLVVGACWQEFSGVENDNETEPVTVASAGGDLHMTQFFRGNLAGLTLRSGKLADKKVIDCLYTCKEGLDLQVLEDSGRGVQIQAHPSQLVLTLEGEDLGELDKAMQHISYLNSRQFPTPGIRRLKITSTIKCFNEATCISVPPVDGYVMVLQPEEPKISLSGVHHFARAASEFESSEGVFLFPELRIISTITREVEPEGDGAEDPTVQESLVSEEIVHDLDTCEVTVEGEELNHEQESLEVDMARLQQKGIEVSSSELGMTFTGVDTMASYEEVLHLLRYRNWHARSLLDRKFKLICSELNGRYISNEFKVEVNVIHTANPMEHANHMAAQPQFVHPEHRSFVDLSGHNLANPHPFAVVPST

Kd: 240 nM
Substance: fibrillin-1 fragment PF1 (from UniProt P35555 45-2731) (domain or fragment)
